According to patent publication US20030220247A1:

Target: vitamin K-dependent gamma-glutamyl carboxylase
Test: inhibition constant of the propeptide toward the carboxylase; assay not described in the example

Ki: 0.43 nM
Substance: consensus propeptide sequence
